Assay results taken from a protein production outcome set (Wang et al. 2014).

Assay: label from the status in PepcDB records

Sequence | protein production
MGVHIDSVVFSRAGALLTLKDEAEISEIRVYSESEEIASQEIGKNKDNVFVSFNWDPEARYRFEVITGSGASGTIEAYAPSKPALKKEYTIELEDVTPGDIEKTSTNVEGALKFSPDSEYLAIGTNGGSLKLIKVATGEKVWEKQLVKGIADARIADIEFSEDGKRLFVGEESPDAFLYCFDLEGTEIWKYGAGKELGSDLKYMPAMKKIKLDSEGNIYVAASRACGYIGEKYKYLARIYSFDPEGNLRWKFPESEYMDSGVTWIDATPDGKYAVFGTTCFTETEKWREGTVHALNGNTGQEHWSYKIQPVEPFFDYSAIWYSTQITPDGEKLITMTSDGRAFLFNNSRIIETGTPEITWQQNISTPIVVSGVPIYGSANYAYIVNDTLIFSIGSTFSKDKNKDAPFEHPSGNSLFAYDYDGNLLWKWRVDGYAGECAVNDRYLVIPLAQNLVTEDRSVHGVYVFDASKSGGASSRLIQTYNTEGITVSADISPDGRYIAALEAPSRLDDGTVLGEYKVHILTLEHHHHHH | not failed
MGVKVATSSTFHQWVAHPIVHHSSSLSQTLASSAVSSPSRRRIIGNDGRSSLSCRSVMQSQRLNPSSPFGTSSTNLRHSKSCELWESTKRPKTQLIRRAFSANVDPFSEEEFAKKMQELTLKFQVSNEEEDNESDTRIDDYTRKMDIVGSHNNFRSDSMEPPWPEMVQMSNIERKANSVDLPLSLRIIKRKLQMEEGVLNQVGESACCSVKKAFSSMVFMIRELQSFTLHMRELLLFEDLQGILHRVRKEMQASFVWLFQQVFSATPTLMVSVMILLANFTVYSIESNSALAAAVSPPTTLSFSFETTAEISETQETNQKFDSSMVKTFSVSSPYGKTSFVGGGGGNNIPPPVQSGTDGDGSDQFRKSQFSSSSLGATSADSDVSVSGQEEIRLWNSILEETAKMETLDHETMKGMVSPVEARLEAEESMDYFKTELLYQTGLSQEPGNVLLLANYAQFLYLIIHDYDRAEKYFKRAAKAEPADAEALNKYATFLWRARNDIWRAEETYLEAISADPTNSVYSANYAHFLWNTGGDETCFPLDAPSQQNNTT | failed
MGVVERAIAPSVLAALADTPVVVVNGARQVGKTTLVARLDYPGSSEVVSLDDVANRDAARDDPRAFVSRPVDTLVIDEAQLEPGLFRAIKAEVDRDRRPGRFLLTGSARLLSAPDMADALVGRVEIIELWPFSQGERAGIADGFVDALFTAPRELIHGSDMRRADLVDRIATGGFPDIVARSPSRRRAWFDNYLTTATQSVIREISPIERLAEMPRVLRLCAARTGAELNVSALANDLSIPARTTAGYLALLEAAFLIHRVPAWSTNLSRKVIRRPKLVVSDSGLACHLLGVTGATLDRPGRPLGPLLETFVANEIRKQLTWSTERPSLWHFRDRGGAEVDLVLEHPDGRVCGIEVKATSTPRAEDLRGLRYLAERLDDRFQFGVLLTAAPEATPFGPTLAALPVSTLWAG | failed
MGVYPPSEDSFLIIEYASCSGKAIEIGCGTGIVSICFLKRGCDIEAVDISDLAVECAKDNASRNGLTLKVYRSDLFSGVSGTYDTILFNAPYIPVEGEDASWSGGRNLEVVSRFLGQAREHLSASGQIYIVLSDLTDNEGMFRMMGYDYFIIKKISFEFEAIVLYKLTLKALEHHHHHH | failed
MGYLKNHWWKRWIRRRGCKLAGGPASVGKRTTLVLEERVELGHLRIVPPRLEIGAYSYVRSGTDLSLVASIGRFCSIGSDCFIGQEKHTHPSDWVSSHPFQHTGTALRYEPALSYAEIGHDVWIGHSAMVMEGVKVGTGAIIATRAVVTRDVPPYAIVAGTPAQVIRYRHPPEIIEGLLASRWWELDSAFLTGLPLDRPREFLAALEAREAPRAAYRRMTITRQGCRLDLEHHHHHH | failed
MHAINFIQDLAVIMLVAGVVTILFHRLRQPVVLGYIVAGFIIGPHTPPVSLIHDEDTIKILAELGVIFLMFCLGLEFSLRKLFKVGATAFIAAFLEIALMIWIGYEIGQFFGWKTMDSLFLGAILAISSTTIIVKALNDLKMKNQHFAQLIFGVLIVEDILGIGIIALLSGIAVSGSVSSGEVFSTVGKLSLFMIVALVVGILLVPRLLSYVARFDSNEMLLITVLGLCFGFCLLVVKLEYSMVLGAFLIGAIMAESRELLKIERLIEPIRDMFSAIFFVAIGLMIDPKILLEYAWPIAVITVAVVLGKMISCGLGAFIAGNDGRTSLRVGMGLSQIGEFSFIIAALGMTLQVTSDFLYPVAVAVSAITTLLTPYLIRGADPLSLKLAAIMPRRVARVFGMYGEWLRSIQPQGQSAVLAGMIRRILLQVGVNLALVMAIFFSGGYFAERLGGYMDEWVADVSHQKAWICGAALLLSLPFLIAAYRKLKALSMLLAEMGVKPEMAGRHTVRVRKVVAEVIPLLSLVVIFVMLAALSASILPANELLLVVVLVAALVAALLWRWLIRVHTRMQIALLETLGNNQESSGH | failed
MHALPGIRTLFLGMPSSTRSPETAVPRILTSRTDVTERSEHNALMFGSPKERWDFYRREIQYDTSILANRTDAYLAAQSFLVIAFASSMSNLNPEWGGLFTLLVPPFLALLCILTTLNAWPGIRAAYDIIDQWYFKQVQLLLAYDESPLFCESESTHKSYRKSLPFSLRAP | failed
MHAPDALPGCAPVSPAPGYHGAPAVAGHAPTLGVTASMSSITLFQAPPPEAIQSQIQQMVVDYITDVSAVAIAPSNPLYNLYQYGVGYEVHLYLQAMDGSRGIAVELVVATDPQAPDQVLGFTLYLPVKDDPQACAVAYMAVLQGHRRQGIARQMLQAMLARYPHAELACNVAKVGCFEALGFQLLGARGPQVLMNTRDHGSDGLLAVLDVVTIYQSVEVRQIHTYLLAQHGRKAMLEAEKKRDRQLDQMTRQAQALVRERLGEAALYRSRAPQLIN | failed
MHCVFLEFNMSVFKKIYFALSAFIVAPHIFLLMSSRHDNPIFRDIEVWSEKLLGKKISGRSGLVASVVELLSLAPEFRNLFYYRVPRARFFKFLSRPENTLHIHTRTIGPGFFIQHGFATIISAESIGADCWINQQVTIGYVDSTGAPKIGDNVTINAGAKVLGNIVIGDNAKVGANAVVVKNIPADCVVVGVPARIIRRAGARVDEAL | failed
MHDATDSLPLCMTRPTRFRWVWWLLAYASLATGIVGIFVPGLPTTVLILNLRLGRLTWLRSRLHYWLLSHPRFGPAIVEWQTYRAVSRKAKWMATLTMSICAAIMLWCVPVFWVKCLSIGSMAVVAIWLWLRPEPPPRPLPAAH | failed
MHEDRKRRRGKLRTAVHFKAPRRARFSRFPLFPRLNPMPAAPTDAHAALPIALRDLIRLHAPQATLLAAIGQRILNIQAEGAPTEEAQLVPPDDWLEHGDLAWITRDGALLGLLWSDGAPVPDGAVQVLTLLLSAASAEGASREADMLITQLPAATAWLSAELEFRQVSRTFLELFGLTGADVLGRTVHEVFPDHAALAQQLDSAAAGRAVQLGDERVPSLPGHSGERWLRGSARPYFGGAAAGVLWTVQDVSTEHTQTTQFAALLGTDLPLALLGPGGAVQGASRGMRQLLGEPEDLAEAQAHPQRPLHEWPCWAPAGARLLQDLIQSAEAGRPSPVPSEIALARGGQLPLLVRRSDTVPGLLLAEGVRPAAVSEDNGAARLLHLSGAATILLDPQGRVQLISEPAARLLGFDPHNIALTGLPLPRLHQQLGIKLHTPQGNPLTVPPLSALTLPHNGEVLAVLPGGVTRHLEISLSALPGSGQSTGSSAASPGRSAAPELLLSLRDVTTLRRAQAKLRHDASHDGLTGLLNRSGLRAALGQATAAQTGGMVACLDIDGFGGLNAALSRTAGDLLLIQVAARLNDLAELEGGQAARLADDTFAVYLPQLGAAVGGQKLQAALREPLRTGKRLVPVTFSLGAAPLLAAAPEQALADAEVALQHARRQGRGQLTVFEPDMRAEEAQTFELEDQLRAVLDRGLQHEQFSLLYQPAVSLKDGRVLGAEALLRWTHPELGNVSPARFLPLAQRSDLITSIGEWVVREAVQGRTQLRDATGQRNWRTSVNLSLEELRREGAIERLLPLITRPSALDIEVSASSLLDHSEETLGLLDALRARGARLIVDDFGDGASSLTALTQFPLYGVKLHPTLTTRLPGDQKSLKLVQGTVSLAHSLGLTVTAVGVETYAQLDMLRDLGCDAAQGYALTPPLSAGDLVTWVQGR | failed
MHEIAPLSPAAAALADFQPDRGPAALNGAAVFCGFAPRPLDDGFTWADFGCGLGITASILAAANPQGRFFAIDADGQALAAGRALAKAAFLDNLTFLQADYTKPHDLDLPPLDFAVLGNVLCWLDGQERQALLSRLGTLLKPGGIVLATYDALPGAAALVPLRDLLFSVTAGQAANPVARARAAIDWLGAMRAAGIDFFRDNPALGPRLDALIERGPQALAGRFFGGTLRPLHFAQVNAEMAAQGLTFAGRAEAFLNLIDLAVPAALRPRLRAATSRAEVEATRDFIRNEDHRRDLYIKGAAPSDGAALTAFDDGRILGPAAAPGQANPEVSFGAVSLSFRGALFESLLAALDLGPRPVGELCASAALEGVPPGLIRDGLRLLTAGGLARPYARAADVAPAAPPVWPLRLPHPLNRALALTLGLGGPTVALASKVLGDGVVMDNRDALLLVALCDAGPEGAVERALAILADQAIPCGPATTQALTDRLSPLITDILPWLRVLGVVEG | failed
MHEKLLTLCDCAFEARLIELEMRVSFQEQALTEISEALAETRLIGARNAELMRHLLEELGKVRNTLYEHPIDEPPPHY | failed
MHEQLSPRDQELEARLVELETRLSFQEQALTELSEALADARLTGARNAELIRHLLEDLGKVRSTLFADAADEPPPPHY | not failed
MHETKVKLSNGLELHVEVGGNPDHPTILLIMGLGAQMLFWPDFFCKSLIDQGFYVIRFDNRDIGLSSKIRHKGKRLNTLKLMSRFTLGLGNQGAPYTLYDMAEDVSLLLEAMRIKKVNVIGASMGGMIAQIIAAKYPEKVEKLALMFTSNNQPLLPPPFPKQLFSLIGKPKSSDEDGIINHSLKLFEIIGSPGYVNQVEAIQTARKLYQRSYHPAGVLQQFLAILCTGSLLQLDKQISQPTLVIHGSRDRLLPPSHGKAVAKAIKGAKFELIQGMGHDIPPHFIPQLSYLFAHHFRS | failed
MHGAEHLLEIFYLLLAAQVMAFIFKRLNQPVVIGEVLAGVLVGPALLGLVHEGEILEFLAELGAVFLLFMVGLETRLKDILAVGKEAFLVAVLGVALPFLGGYLYGLEIGFETLPALFLGTALVATSVGITARVLQELGVLSRPYSRIILGAAVIDDVLGLIVLAVVNGVAETGQVEVGAITRLIVLSVVFVGLAVFLSTLIARLPLERLPVGSPLGFALALGVGMAALAASIGLAPIVGAFLGGMLLSEVREKYRLEEPIFAIESFLAPIFFAMVGVRLELSALASPVVLVAGTVVTVIAILGKVLGGFLGALTQGVRSALTVGVGMAPRGEVGLIVAALGLKAGAVNEEEYAIVLFMVVFTTLFAPFALKPLIAWTERERAAKE | failed
MHGHGGYDSDFSDDEHCGESSKRKKRTVEDDLLLQKPFQKEKHGKVAHKQVAAELLDREEARNRRFHLIAMDAYQRHRKFVNDYILYYGGKKEDFKRLGENDKTDLDVIRENHRFLWNEEDEMDMTWEKRLAKKYYDKLFKEYCIADLSKYKENKFGFRWRVEKEVISGKGQFFCGNKYCDKKEGLKSWEVNFGYIEHGEKRNALVKLRLCQECSIKLNFHHRRKEIKSKKRKDKTKKDCEESSHKKSRLSSAEEASKKKDKGHSSSKKSEDSLLRNSDEEESASESELWKGPLPETDEKSQEEEFDEYFQDLFL | not failed
MHGTNPVPKLPKKIPMQADPNAAPPALDDETLAFAARLFQYARMGHAEELAELFGQGLPANLRNDKGDSLLMLAAYNGQAATARVILEAGGDPELANDRGQTPLAGAAFKGDADIVRLLLEHGAQVDGAGDGTRTALMVAAMFDRTEIVDLLLAQGADPSRRDASGMSAADMARQMGAQNTPAQLERAQGDRAG | failed
MHHQRKTHVDNNIAAVELAKAYRLLNHGPTVLVSARSQGIDNVMAAAWCCALDFAPPKLTVVLDKMTKTREFIEQSGMFVIQVPTVAQLQLTHRVGSQSLADDANKLLNCGVELFEMAGHDLPFVAGCSAWLACKLIPEPNNQLQYDLFIAEVIGAWADTQVFNHGHWHFDTAPADKRSLHYIAGGQFYAIGESFNAD | not failed
MHIIQRNPSTNLPEGPYSATSAVKDPSHLPMGHHICFSVPNFDSFLHSLKEKGIETFQKSLPDGKVKQVFFFDPDGNGLEVASRS | failed
